For this assay, the target named is IGF-1R 단백질 (Sino biological Inc. 10164H08H) (UniProt P08069 31-932). The assay is described as follows: ELISA, coated IGF-1R (50 ng/well), anti-human Fc-HRP. Background: An ELISA detects its analyte on a solid surface through an enzyme-linked reagent.

The EC50 is the concentration needed to bring the measured effect to its halfway point. A high value points to weaker potency.

Chain of IGF-1R 단백질 (Sino biological Inc. 10164H08H) (P08069 31-932 limits assumed): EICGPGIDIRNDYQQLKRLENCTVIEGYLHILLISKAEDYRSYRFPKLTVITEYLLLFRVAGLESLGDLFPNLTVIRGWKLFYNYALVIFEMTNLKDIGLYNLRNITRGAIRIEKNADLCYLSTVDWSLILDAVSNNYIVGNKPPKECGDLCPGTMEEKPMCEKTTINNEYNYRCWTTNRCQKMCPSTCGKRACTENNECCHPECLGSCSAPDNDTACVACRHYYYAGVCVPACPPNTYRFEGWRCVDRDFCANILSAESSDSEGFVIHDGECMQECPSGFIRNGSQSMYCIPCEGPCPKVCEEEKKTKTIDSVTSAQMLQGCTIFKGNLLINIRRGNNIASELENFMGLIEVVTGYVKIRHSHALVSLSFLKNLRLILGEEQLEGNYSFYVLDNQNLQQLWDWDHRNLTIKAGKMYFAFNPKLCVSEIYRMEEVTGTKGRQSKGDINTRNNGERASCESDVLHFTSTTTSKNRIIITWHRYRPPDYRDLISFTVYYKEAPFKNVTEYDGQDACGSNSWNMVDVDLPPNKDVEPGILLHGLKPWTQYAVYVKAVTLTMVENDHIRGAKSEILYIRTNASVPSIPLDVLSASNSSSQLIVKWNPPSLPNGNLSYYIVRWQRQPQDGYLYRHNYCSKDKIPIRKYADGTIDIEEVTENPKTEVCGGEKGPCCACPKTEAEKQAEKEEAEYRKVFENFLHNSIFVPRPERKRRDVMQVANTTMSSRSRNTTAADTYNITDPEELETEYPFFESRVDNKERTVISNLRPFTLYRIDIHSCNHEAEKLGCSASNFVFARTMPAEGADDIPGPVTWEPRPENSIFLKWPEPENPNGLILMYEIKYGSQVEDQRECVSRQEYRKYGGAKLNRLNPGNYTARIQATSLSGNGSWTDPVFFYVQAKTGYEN

B1: MKJP2 인간 단일클론항체 (antibody, human IgG1, lambda, V domains shown)
VH: EVQLLESGGGLAQPGGSLRLSCAASGFTFSGYAMSWVRQAPGKGLEWVSAISSDGGSTYYADSVKGRFTISRDNSKNTLYLQMNSLRAEDTAVYYCARDPWFSRWTAFDYWGQGTLVTVSS
VL: QSVLTQPPSASGTPGQRVTISCSGSSSNIGNNAVNWYQQLPGTAPKLLIYSNSKRPSGVPDRFSGSKSGTSASLAISGLRSEDEADYYCGTWDYSLSGYVFGGGTKLTVLG
notes: Human anti-IGF-1R antibody without IL2, used as the control in the ELISA; also called 1229 클론
Molecule B1 displayed an EC50 of 0.148 nM.

The record behind these values is patent KR20140148294A (dated 2014).
